This note sets out measurements from publication doi:10.1101/2023.05.30.542861 (bioRxiv, 2023).

This data set concerns the molecule itself. Briefly: cross-linking.

B1: L-Glutamate dehydrogenase from bovine liver (enzyme)
chain: not shown
In the case of B1, the “stoichiometry N” value is 6.

Usually stoichiometry N stands for the number of molecules, sites or subunits per partner or assembly.
